According to publication PMC11551746, “The Swi5–Sfr1 complex regulates Dmc1- and Rad51-driven DNA strand exchange proceeding through two distinct three-stranded intermediates by different mechanisms” (Nucleic Acids Research, 2024):

How the values were obtained:
Dmc1 [1] = molecular target: T1, Dmc1 (Schizosaccharomyces pombe, UniProt O42634); assay: FRET real-time DNA strand pairing and displacement; assay type: biochemical; details: 1 mM ATP, 5 mM MgCl2, 25 mM KCl, pH 7.5, 30 °C, 83-mer ssDNA, 40-83 bp dsDNA; compared with ADP
T1 construct: purified as described previously; filament on ssDNA
T1 sequence (O42634 1-332): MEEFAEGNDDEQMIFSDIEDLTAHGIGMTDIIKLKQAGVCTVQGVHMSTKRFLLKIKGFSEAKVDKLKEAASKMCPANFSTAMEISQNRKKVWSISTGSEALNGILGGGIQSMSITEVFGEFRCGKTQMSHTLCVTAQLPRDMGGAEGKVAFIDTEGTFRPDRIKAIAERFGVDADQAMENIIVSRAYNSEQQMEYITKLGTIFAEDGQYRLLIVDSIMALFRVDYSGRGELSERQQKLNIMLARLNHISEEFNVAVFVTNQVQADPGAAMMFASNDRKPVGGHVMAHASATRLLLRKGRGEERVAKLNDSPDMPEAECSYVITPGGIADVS

Rad51 [2] = molecular target: T2, Rad51 (Schizosaccharomyces pombe, UniProt P36601); assay: fluorescence anisotropy of Rad51-ssDNA filament; assay type: binding; details: 1 mM AMP-PNP, 3 mM MgCl2, 100 mM KCl, pH 7.5, 25 °C, TAMRA-oligo dT; compared with ATP
T2 construct: purified as described previously; filament on ssDNA
T2 sequence (P36601 1-365): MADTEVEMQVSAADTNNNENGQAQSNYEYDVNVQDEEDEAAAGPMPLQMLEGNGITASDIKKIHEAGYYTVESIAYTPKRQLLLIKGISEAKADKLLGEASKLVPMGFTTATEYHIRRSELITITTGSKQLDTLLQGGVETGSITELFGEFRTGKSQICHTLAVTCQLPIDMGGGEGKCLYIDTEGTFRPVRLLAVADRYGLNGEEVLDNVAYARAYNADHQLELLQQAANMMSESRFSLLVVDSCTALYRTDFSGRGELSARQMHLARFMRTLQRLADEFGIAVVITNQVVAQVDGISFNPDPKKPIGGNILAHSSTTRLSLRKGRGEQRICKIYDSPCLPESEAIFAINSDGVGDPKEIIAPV

Dmc1 [3] = molecular target: T1, Dmc1; assay: fluorescence anisotropy of Dmc1-ssDNA filament; FRET strand exchange; assay type: binding; details: 1 mM AMP-PNP, 3 mM MgCl2, 100 mM KCl, pH 7.5, 25 °C, TAMRA-oligo dT (anisotropy); compared with ATP
Dmc1 [4] = molecular target: T3, Dmc1 (Schizosaccharomyces pombe? (fission …, UniProt O42634 1-332)); assay: fluorescence anisotropy; 3 mM Ca2+ in place of Mg2+, ATP?; Hill fit; 30 mM HEPES-KOH pH 7.5, 100 mM KCl, 3 mM MgCl2 or CaCl2, 1 mM DTT, 5% glycerol, 1 mM adenine nucleotide, 3 uM (nt) TAMRA-dT72, 25 C; details: protein: recombinant; label: 5' TAMRA; single-stranded
T3 sequence: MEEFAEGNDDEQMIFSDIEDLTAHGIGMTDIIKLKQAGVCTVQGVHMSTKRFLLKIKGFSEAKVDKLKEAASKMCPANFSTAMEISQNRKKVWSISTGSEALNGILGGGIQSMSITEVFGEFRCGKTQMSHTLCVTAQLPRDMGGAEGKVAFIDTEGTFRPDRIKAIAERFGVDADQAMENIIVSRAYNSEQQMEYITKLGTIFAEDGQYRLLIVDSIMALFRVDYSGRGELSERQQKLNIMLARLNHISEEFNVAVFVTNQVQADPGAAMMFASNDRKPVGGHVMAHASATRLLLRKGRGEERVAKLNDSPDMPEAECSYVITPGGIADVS

Rad51 [5] = molecular target: T4, Rad51 (Schizosaccharomyces pombe? (fission …, UniProt P36601 1-365)); assay: fluorescence anisotropy; 1 mM ATP, 3 mM Mg2+; Hill fit; 30 mM HEPES-KOH pH 7.5, 100 mM KCl, 3 mM MgCl2 or CaCl2, 1 mM DTT, 5% glycerol, 1 mM adenine nucleotide, 3 uM (nt) TAMRA-dT72, 25 C; details: protein: recombinant; label: 5' TAMRA; single-stranded
T4 sequence: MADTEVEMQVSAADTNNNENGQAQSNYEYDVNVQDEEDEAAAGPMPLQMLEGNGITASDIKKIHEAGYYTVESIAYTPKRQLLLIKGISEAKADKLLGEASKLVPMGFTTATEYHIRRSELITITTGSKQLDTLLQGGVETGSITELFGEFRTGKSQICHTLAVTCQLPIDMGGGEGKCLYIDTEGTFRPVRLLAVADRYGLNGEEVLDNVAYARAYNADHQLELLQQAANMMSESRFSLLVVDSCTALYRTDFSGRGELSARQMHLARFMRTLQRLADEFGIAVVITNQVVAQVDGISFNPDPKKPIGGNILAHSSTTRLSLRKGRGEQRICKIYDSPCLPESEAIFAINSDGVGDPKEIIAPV

Dmc1 [6] = molecular target: T3, Dmc1; assay: as above; details: protein: recombinant; label: 5' TAMRA; single-stranded
Dmc1 [7] = molecular target: T3, Dmc1; assay: fluorescence anisotropy; 1 mM AMP-PNP, Mg2+; Hill fit; 30 mM HEPES-KOH pH 7.5, 100 mM KCl, 3 mM MgCl2 or CaCl2, 1 mM DTT, 5% glycerol, 1 mM adenine nucleotide, 3 uM (nt) TAMRA-dT72, 25 C; details: protein: recombinant; label: 5' TAMRA; single-stranded
Dmc1 [8] = molecular target: T3, Dmc1; assay: fluorescence anisotropy; ssDNA preincubated with Swi5-Sfr1 (0.1 uM or more), ATP?, Mg2+; Hill fit; 30 mM HEPES-KOH pH 7.5, 100 mM KCl, 3 mM MgCl2 or CaCl2, 1 mM DTT, 5% glycerol, 1 mM adenine nucleotide, 3 uM (nt) TAMRA-dT72, 25 C; details: protein: recombinant; label: 5' TAMRA; single-stranded
Dmc1 [9] = molecular target: T3, Dmc1; assay: fluorescence anisotropy; 1 mM ADP, Mg2+; Hill fit; 30 mM HEPES-KOH pH 7.5, 100 mM KCl, 3 mM MgCl2 or CaCl2, 1 mM DTT, 5% glycerol, 1 mM adenine nucleotide, 3 uM (nt) TAMRA-dT72, 25 C; details: protein: recombinant; label: 5' TAMRA; single-stranded

Nc1ncnc2c1ncn2[C@@H]1O[C@H](COP(=O)(O)OP(=O)(O)OP(=O)(O)O)[C@@H](O)[C@H]1O [ATP]
FRET real-time DNA strand pairing and displacement (Dmc1 [1]): the ATP-bound form of Dmc1 is sufficient for three-stranded intermediate formation

Nc1ncnc2c1ncn2[C@@H]1O[C@H](COP(=O)(O)OP(=O)(O)NP(=O)(O)O)[C@@H](O)[C@H]1O [AMP–PNP]
fluorescence anisotropy of Rad51-ssDNA filament (Rad51 [2]): AMP–PNP significantly stabilized the Rad51 filament | fluorescence anisotropy of Dmc1-ssDNA filament; FRET strand exchange (Dmc1 [3]): AMP–PNP strongly stabilizes the Dmc1–ssDNA filament

B1: [TAMRA]dT72 (ssDNA)
DNA: TTTTTTTTTTTTTTTTTTTTTTTTTTTTTTTTTTTTTTTTTTTTTTTTTTTTTTTTTTTTTTTTTTTTTTTT
Kd (Dmc1 [4]): 227 nM | Kd (Rad51 [5]): 308 nM | Kd (Dmc1 [6]): 1220 nM | Kd (Dmc1 [7]): 547 nM | Kd (Dmc1 [8]): ~510 nM | Kd (Dmc1 [9]): 1970 nM
